Assays:
Assay in all cases: holdup assay
Design in all cases: key: below the threshold = too weak to quantify, mostly under pKd 3.1 to 4
FRMPD2_1, Q68DX3 = target: FRMPD2_1, Q68DX3
DLG1_3, Q12959 = target: DLG1_3, Q12959
NHERF2_2, Q15599 = target: NHERF2_2, Q15599
TIAM2, Q8IVF5 = target: T1, TIAM2, Q8IVF5
T1 sequence (Q8IVF5 885-986, limits assumed, looked up): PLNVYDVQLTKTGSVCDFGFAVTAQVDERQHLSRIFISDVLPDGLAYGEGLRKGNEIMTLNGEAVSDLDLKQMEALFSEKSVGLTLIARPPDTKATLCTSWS

AHNAK1, Q09666 = target: AHNAK1, Q09666
Chain of AHNAK1, Q09666 (Q09666 4-100): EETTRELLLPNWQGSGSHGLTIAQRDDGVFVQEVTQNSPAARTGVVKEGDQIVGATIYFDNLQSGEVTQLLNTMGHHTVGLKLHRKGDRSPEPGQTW

SNTB1, Q13884 = target: T2, SNTB1, Q13884
T2 sequence (Q13884 107-205, limits assumed, looked up): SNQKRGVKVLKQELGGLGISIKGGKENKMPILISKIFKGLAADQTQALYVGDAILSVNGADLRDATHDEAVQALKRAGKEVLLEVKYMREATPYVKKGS

MPDZ_5, O75970 = target: T3, MPDZ_5, O75970
T3 sequence (O75970 695-796, limits assumed, looked up): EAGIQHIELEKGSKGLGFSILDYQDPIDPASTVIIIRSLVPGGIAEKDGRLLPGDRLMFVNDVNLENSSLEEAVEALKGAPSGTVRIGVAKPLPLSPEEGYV

MPP7, Q5T2T1 = target: T4, MPP7, Q5T2T1
T4 sequence (Q5T2T1 134-230, limits assumed, looked up): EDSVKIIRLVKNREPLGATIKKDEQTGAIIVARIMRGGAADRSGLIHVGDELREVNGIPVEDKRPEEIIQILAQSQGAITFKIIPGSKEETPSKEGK

IL16_4, Q14005 = target: IL16_4, Q14005
Chain of IL16_4, Q14005 (Q14005 1229-1329): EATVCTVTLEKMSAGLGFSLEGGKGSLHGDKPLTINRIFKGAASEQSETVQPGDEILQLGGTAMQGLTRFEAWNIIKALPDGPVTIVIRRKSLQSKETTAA

MAGI2_4, Q86UL8 = target: MAGI2_4, Q86UL8
Chain of MAGI2_4, Q86UL8 (Q86UL8 772-865): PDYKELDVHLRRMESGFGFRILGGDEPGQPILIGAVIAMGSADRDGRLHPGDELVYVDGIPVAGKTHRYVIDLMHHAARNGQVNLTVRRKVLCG

HTRA4, P83105 = target: T5, HTRA4, P83105
T5 sequence (P83105 378-476, limits assumed, looked up): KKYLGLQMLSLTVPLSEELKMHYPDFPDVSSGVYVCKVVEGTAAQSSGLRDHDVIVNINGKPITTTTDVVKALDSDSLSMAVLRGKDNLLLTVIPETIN

GRIP1_2, Q9Y3R0 = target: T6, GRIP1_2, Q9Y3R0
T6 sequence (Q9Y3R0 145-248, limits assumed, looked up): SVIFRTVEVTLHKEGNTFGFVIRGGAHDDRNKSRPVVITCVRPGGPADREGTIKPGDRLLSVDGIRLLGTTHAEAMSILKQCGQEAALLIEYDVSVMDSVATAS

NHERF3_3, Q5T2W1 = target: T7, NHERF3_3, Q5T2W1
T7 sequence (Q5T2W1 238-333, limits assumed, looked up): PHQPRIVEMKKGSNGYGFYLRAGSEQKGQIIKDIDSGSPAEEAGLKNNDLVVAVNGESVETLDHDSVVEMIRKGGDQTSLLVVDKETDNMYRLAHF

FRMPD1, Q5SYB0 = target: T8, FRMPD1, Q5SYB0
T8 sequence (Q5SYB0 52-145, limits assumed, looked up): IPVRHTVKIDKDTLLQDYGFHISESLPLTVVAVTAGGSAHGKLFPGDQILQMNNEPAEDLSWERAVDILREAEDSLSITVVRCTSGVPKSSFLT

PDZRN4_1, Q6ZMN7 = target: PDZRN4_1, Q6ZMN7
Chain of PDZRN4_1, Q6ZMN7 (Q6ZMN7 213-318): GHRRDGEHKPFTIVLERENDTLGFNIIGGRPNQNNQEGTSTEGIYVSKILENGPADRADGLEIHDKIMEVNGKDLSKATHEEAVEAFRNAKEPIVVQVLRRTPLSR

Inadl_3, Q8NI35 = target: Inadl_3, Q8NI35
Chain of Inadl_3, Q8NI35 (Q8NI35 359-469): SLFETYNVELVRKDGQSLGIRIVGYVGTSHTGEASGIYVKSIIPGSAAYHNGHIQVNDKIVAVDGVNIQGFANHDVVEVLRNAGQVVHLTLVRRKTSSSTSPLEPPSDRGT

Inadl_2, Q8NI35 = target: Inadl_2, Q8NI35
Chain of Inadl_2, Q8NI35 (Q8NI35 238-335): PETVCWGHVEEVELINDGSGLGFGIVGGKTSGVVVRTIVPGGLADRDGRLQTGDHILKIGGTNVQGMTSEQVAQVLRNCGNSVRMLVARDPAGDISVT

IL16_1, Q14005 = target: IL16_1, Q14005
Chain of IL16_1, Q14005 (Q14005 210-306): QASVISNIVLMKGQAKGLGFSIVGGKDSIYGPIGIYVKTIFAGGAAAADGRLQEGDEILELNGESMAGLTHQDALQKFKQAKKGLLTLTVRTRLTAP

GRID2IP_1, A4D2P6 = target: GRID2IP_1, A4D2P6
Chain of GRID2IP_1, A4D2P6 (A4D2P6 1-87): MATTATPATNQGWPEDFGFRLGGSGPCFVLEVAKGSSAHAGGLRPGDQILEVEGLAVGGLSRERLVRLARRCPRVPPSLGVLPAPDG

NHERF4_2, Q86UT5 = target: NHERF4_2, Q86UT5
Chain of NHERF4_2, Q86UT5 (Q86UT5 220-308): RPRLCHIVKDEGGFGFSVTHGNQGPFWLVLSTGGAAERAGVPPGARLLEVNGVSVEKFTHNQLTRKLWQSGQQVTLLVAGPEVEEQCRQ

MAGI1_1, Q96QZ7 = target: MAGI1_1, Q96QZ7
Chain of MAGI1_1, Q96QZ7 (Q96QZ7 1-106): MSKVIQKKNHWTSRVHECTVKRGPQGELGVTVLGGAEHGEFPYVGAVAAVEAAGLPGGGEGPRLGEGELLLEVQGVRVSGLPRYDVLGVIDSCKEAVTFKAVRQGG

GRIP2_7, Q9C0E4 = target: GRIP2_7, Q9C0E4
Chain of GRIP2_7, Q9C0E4 (Q9C0E4 934-1023): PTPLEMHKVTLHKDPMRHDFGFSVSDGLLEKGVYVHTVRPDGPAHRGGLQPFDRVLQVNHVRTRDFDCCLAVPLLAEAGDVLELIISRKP

TJP2_1, Q9UDY2 = target: TJP2_1, Q9UDY2
Chain of TJP2_1, Q9UDY2 (Q9UDY2 24-128): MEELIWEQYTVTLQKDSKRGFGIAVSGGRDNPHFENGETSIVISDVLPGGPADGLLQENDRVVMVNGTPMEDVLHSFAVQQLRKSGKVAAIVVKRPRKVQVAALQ

MAGI2_3, Q86UL8 = target: MAGI2_3, Q86UL8
Chain of MAGI2_3, Q86UL8 (Q86UL8 600-682): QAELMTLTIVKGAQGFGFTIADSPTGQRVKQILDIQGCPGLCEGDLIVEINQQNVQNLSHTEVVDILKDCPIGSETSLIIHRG

TJP3_3, O95049 = target: T9, TJP3_3, O95049
T9 sequence (O95049 375-456, limits assumed, looked up): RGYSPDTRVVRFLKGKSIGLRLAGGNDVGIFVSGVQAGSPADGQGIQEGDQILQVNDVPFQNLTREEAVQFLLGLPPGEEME

MPDZ_12, O75970 = target: T10, MPDZ_12, O75970
T10 sequence (O75970 1857-1958, limits assumed, looked up): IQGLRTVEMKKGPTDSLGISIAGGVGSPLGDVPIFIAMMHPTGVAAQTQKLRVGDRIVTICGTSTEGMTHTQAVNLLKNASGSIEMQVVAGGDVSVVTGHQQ

Inadl_1, Q8NI35 = target: Inadl_1, Q8NI35
Chain of Inadl_1, Q8NI35 (Q8NI35 113-229): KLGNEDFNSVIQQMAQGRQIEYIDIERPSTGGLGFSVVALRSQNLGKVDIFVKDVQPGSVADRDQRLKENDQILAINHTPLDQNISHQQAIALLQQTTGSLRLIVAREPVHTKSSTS

MAGI2_5, Q86UL8 = target: MAGI2_5, Q86UL8
Chain of MAGI2_5, Q86UL8 (Q86UL8 915-1017): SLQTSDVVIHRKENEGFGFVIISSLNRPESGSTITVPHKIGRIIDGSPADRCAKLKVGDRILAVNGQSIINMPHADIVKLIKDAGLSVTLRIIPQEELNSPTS

[1] = plain residues with an end cap or a label only (N-terminal biotin on a linker: ado-ado)
[2] = plain residues with an end cap or a label only (N-terminal biotin on a linker: ttds)
[3] = plain residues with an end cap or a label only (N-terminal biotin on a linker: ado-ado, ttds)
[4] = plain residues with an end cap or a label only (N-terminal biotin on a linker: ahx)

Measured: pKd

Chain of NHERF2_2, Q15599 (Q15599 142-238): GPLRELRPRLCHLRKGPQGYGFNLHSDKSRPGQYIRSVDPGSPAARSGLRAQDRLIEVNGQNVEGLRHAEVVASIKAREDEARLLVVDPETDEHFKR
Chain of DLG1_3, Q12959 (Q12959 457-571): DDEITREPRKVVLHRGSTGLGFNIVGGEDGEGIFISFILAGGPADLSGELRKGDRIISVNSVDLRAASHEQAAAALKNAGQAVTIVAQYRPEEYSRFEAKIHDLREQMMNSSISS
Chain of FRMPD2_1, Q68DX3 (Q68DX3 770-861): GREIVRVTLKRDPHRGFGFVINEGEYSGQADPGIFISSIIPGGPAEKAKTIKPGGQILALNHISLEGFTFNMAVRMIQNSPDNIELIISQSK

ELKAEDEVQI [DCHS2, Q6V1P9]
below the threshold: FRMPD2_1, Q68DX3; [1] | DLG1_3, Q12959; [1] | NHERF2_2, Q15599; [1] | AHNAK1, Q09666; [1] | SNTB1, Q13884; [1] | MPDZ_5, O75970; [1] | MAGI2_4, Q86UL8; [1] | HTRA4, P83105; [1] | GRIP1_2, Q9Y3R0; [1] | NHERF3_3, Q5T2W1; [1] | FRMPD1, Q5SYB0; [1] | PDZRN4_1, Q6ZMN7; [1] | Inadl_3, Q8NI35; [1] | Inadl_2, Q8NI35; [1] | IL16_1, Q14005; [1] | GRID2IP_1, A4D2P6; [1] | NHERF4_2, Q86UT5; [1] | MAGI1_1, Q96QZ7; [1] | GRIP2_7, Q9C0E4; [1] | TJP2_1, Q9UDY2; [1] | MAGI2_3, Q86UL8; [1] | TJP3_3, O95049; [1] | MPDZ_12, O75970; [1] | Inadl_1, Q8NI35; [1] | MAGI2_5, Q86UL8; [1]
4: MPP7, Q5T2T1; [1]
3.52: TIAM2, Q8IVF5; [1]
3.6: IL16_4, Q14005; [1]

SSIDLWETAL [SLC15A5, A6NIM6]
4.22: DLG1_3, Q12959; [2]
5.41: NHERF2_2, Q15599; [2] | SNTB1, Q13884; [2]
5.58: PDZRN4_1, Q6ZMN7; [2]
4.97: MAGI2_5, Q86UL8; [2]
4.66: Inadl_3, Q8NI35; [2]
4.29: IL16_1, Q14005; [2]
below the threshold: FRMPD2_1, Q68DX3; [2] | TIAM2, Q8IVF5; [2] | AHNAK1, Q09666; [2] | MPDZ_5, O75970; [2] | IL16_4, Q14005; [2] | MAGI2_4, Q86UL8; [2] | HTRA4, P83105; [2] | GRIP1_2, Q9Y3R0; [2] | NHERF3_3, Q5T2W1; [2] | FRMPD1, Q5SYB0; [2] | Inadl_2, Q8NI35; [2] | GRID2IP_1, A4D2P6; [2] | NHERF4_2, Q86UT5; [2] | MAGI1_1, Q96QZ7; [2] | GRIP2_7, Q9C0E4; [2] | TJP2_1, Q9UDY2; [2] | MAGI2_3, Q86UL8; [2] | TJP3_3, O95049; [2] | MPDZ_12, O75970; [2] | Inadl_1, Q8NI35; [2]
3.81: MPP7, Q5T2T1; [2]

SNAKAVETDV [KCNA4, P22459]
3.79: MAGI2_4, Q86UL8; [3]
3.54: MAGI2_3, Q86UL8; [3]
below the threshold: FRMPD2_1, Q68DX3; [3] | DLG1_3, Q12959; [3] | TIAM2, Q8IVF5; [3] | AHNAK1, Q09666; [3] | MPDZ_5, O75970; [3] | MPP7, Q5T2T1; [3] | IL16_4, Q14005; [3] | HTRA4, P83105; [3] | GRIP1_2, Q9Y3R0; [3] | NHERF3_3, Q5T2W1; [3] | FRMPD1, Q5SYB0; [3] | PDZRN4_1, Q6ZMN7; [3] | Inadl_2, Q8NI35; [3] | IL16_1, Q14005; [3] | GRID2IP_1, A4D2P6; [3] | NHERF4_2, Q86UT5; [3] | MAGI1_1, Q96QZ7; [3] | GRIP2_7, Q9C0E4; [3] | TJP2_1, Q9UDY2; [3] | TJP3_3, O95049; [3] | MPDZ_12, O75970; [3] | Inadl_1, Q8NI35; [3] | MAGI2_5, Q86UL8; [3]
3.51: Inadl_3, Q8NI35; [3]
4.71: SNTB1, Q13884; [3]
3.59: NHERF2_2, Q15599; [3]

SKKNELFSNL [NHERF1, O14745]
below the threshold: FRMPD2_1, Q68DX3; [4] | DLG1_3, Q12959; [4] | NHERF2_2, Q15599; [4] | TIAM2, Q8IVF5; [4] | AHNAK1, Q09666; [4] | SNTB1, Q13884; [4] | MPDZ_5, O75970; [4] | MPP7, Q5T2T1; [4] | IL16_4, Q14005; [4] | MAGI2_4, Q86UL8; [4] | HTRA4, P83105; [4] | GRIP1_2, Q9Y3R0; [4] | NHERF3_3, Q5T2W1; [4] | FRMPD1, Q5SYB0; [4] | PDZRN4_1, Q6ZMN7; [4] | Inadl_3, Q8NI35; [4] | Inadl_2, Q8NI35; [4] | IL16_1, Q14005; [4] | GRID2IP_1, A4D2P6; [4] | NHERF4_2, Q86UT5; [4] | MAGI1_1, Q96QZ7; [4] | GRIP2_7, Q9C0E4; [4] | TJP2_1, Q9UDY2; [4] | MAGI2_3, Q86UL8; [4] | TJP3_3, O95049; [4] | MPDZ_12, O75970; [4] | Inadl_1, Q8NI35; [4] | MAGI2_5, Q86UL8; [4]

PPRQRSETQV [HPV82-E6, Q9IR59]
3.5: FRMPD2_1, Q68DX3; [2]
3.99: DLG1_3, Q12959; [2]
3.73: MAGI2_3, Q86UL8; [2]
4.72: MAGI2_4, Q86UL8; [2]
4: MAGI2_5, Q86UL8; [2]
4.05: SNTB1, Q13884; [2]
below the threshold: NHERF2_2, Q15599; [2] | TIAM2, Q8IVF5; [2] | AHNAK1, Q09666; [2] | MPDZ_5, O75970; [2] | MPP7, Q5T2T1; [2] | IL16_4, Q14005; [2] | HTRA4, P83105; [2] | GRIP1_2, Q9Y3R0; [2] | NHERF3_3, Q5T2W1; [2] | FRMPD1, Q5SYB0; [2] | Inadl_3, Q8NI35; [2] | Inadl_2, Q8NI35; [2] | IL16_1, Q14005; [2] | GRID2IP_1, A4D2P6; [2] | NHERF4_2, Q86UT5; [2] | MAGI1_1, Q96QZ7; [2] | GRIP2_7, Q9C0E4; [2] | TJP3_3, O95049; [2] | MPDZ_12, O75970; [2] | Inadl_1, Q8NI35; [2]
3.44: TJP2_1, Q9UDY2; [2]
3.83: PDZRN4_1, Q6ZMN7; [2]
